We go through three molecules from patent publication US20230340151A1 (Pfizer, published 2023).

Where two headings read alike, the source gives them in different places.

The target of assay [1] is T1, GUCY2C-1608.
T1 construct: also called GUCY2c CD3 bispecific
Briefly: competition DELFIA ELISA: peptide 19 in solution competes with the plate-bound full GUCY2c extracellular domain for GUCY2C-1608.

In assay [2] the target is T2, Human GUCY2C ECD-muIgG2a (human).
T2 construct: also called human GUCY2c ECD-mouse IgG2a Fc fusion protein; huGUCY2c-mIgG2a
Briefly: huCD3-huGUCY2C sandwich ELISA (CD3 coated). For orientation: An ELISA detects its analyte on a solid surface through an enzyme-linked reagent.

The target in assay [3] is T3, Cynomolgus GUCY2C-ECD Cleaved (cynomolgus, UniProt P25092 24-430 (human entry)).
T3 construct: also called CyGUCY2C
T3 chain: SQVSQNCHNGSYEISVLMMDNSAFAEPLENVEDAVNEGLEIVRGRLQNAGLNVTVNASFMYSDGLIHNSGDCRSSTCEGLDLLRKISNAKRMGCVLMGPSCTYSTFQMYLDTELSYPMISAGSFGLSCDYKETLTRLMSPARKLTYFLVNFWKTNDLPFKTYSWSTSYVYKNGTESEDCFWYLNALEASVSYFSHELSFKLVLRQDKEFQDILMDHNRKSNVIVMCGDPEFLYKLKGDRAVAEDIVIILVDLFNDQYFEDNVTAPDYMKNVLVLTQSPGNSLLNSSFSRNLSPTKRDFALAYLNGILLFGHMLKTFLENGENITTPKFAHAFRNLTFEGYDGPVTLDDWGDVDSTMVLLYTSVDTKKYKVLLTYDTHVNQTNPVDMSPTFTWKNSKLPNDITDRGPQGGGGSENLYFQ
The assay can be described thus: SPR, anti-human IgG capture, 25 C.

The target of assay [4] is T4, Human GUCY2c on tumor cells (T84, HT55) (human, UniProt P25092 24-1073). The assay can be described thus: cell-based or functional assay.
Assay [5] addresses T5, Human GUCY2C full length (SEQ ID NO: 224), recombinant protein (human, UniProt P25092 24-430, limits assumed).
T5 construct: also called huGUCY2C; biotinylated human GUCY2c
The assay can be described thus: SPR, anti-human IgG capture, 25 C. A general note: In SPR one partner is held on a chip, and binding of the other changes the refractive index at the surface.

Assay [6] addresses T6, Murine GUCY2C-ECD cleaved (mouse, UniProt Q3UWA6 20-433).
T6 sequence: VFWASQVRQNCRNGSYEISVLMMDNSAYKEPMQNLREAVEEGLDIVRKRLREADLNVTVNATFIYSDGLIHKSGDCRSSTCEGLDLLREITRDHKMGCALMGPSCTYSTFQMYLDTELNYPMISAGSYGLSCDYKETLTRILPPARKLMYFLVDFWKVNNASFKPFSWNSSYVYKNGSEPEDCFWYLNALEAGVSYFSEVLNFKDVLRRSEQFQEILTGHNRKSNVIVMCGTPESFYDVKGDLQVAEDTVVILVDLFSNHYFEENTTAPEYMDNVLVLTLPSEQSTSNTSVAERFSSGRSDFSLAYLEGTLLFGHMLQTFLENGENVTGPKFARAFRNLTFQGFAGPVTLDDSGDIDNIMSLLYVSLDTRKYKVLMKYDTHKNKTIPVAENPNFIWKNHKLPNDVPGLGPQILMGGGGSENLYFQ
The assay can be described thus: SPR, GUCY2c directly immobilized, 25 C.

Assay [7] deals with T7, Cynomolgus CD3 epsilon-delta (cynomolgus).
T7 chain: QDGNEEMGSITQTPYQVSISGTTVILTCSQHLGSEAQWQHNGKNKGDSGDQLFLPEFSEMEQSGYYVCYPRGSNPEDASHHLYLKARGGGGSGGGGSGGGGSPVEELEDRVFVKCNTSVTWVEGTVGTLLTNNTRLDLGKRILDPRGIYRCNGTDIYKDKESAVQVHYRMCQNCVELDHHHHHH
Briefly: SPR, printed anti-His capture, 25 C (Table 33D).

Assay [8] deals with T8, Human CD3 epsilon-delta (human).
T8 construct: Single-chain epsilon-linker-delta with His6; also called huCD3
T8 chain: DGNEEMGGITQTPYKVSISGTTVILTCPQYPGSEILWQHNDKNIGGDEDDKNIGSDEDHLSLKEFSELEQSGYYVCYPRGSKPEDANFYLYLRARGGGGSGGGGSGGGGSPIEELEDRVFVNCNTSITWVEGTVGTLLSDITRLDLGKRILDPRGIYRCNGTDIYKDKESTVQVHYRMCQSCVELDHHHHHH
The assay can be described thus: SPR, anti-human IgG capture, 25 C.

In assay [9] the target is T9, Human CD3 on naive human T cells (human, UniProt P07766 23-207).
T9 construct: whole, on cells; on cells it stands in the CD3/TCR complex
Briefly: flow cytometry titration on naive human T cells (PE-A Geo Mean against Ab in nM). On the technique in general: Flow cytometry measures light scatter and fluorescence of single cells or particles in a stream.

Assay [10] addresses T4, Human GUCY2c on tumor cells (T84, HT55). Briefly: cell-based or functional assay. This is another data set of the same source.
Assay [11] shares this target. The assay can be described thus: flow cytometry titration on T84 tumor cells (PE-A Geo Mean against Ab in nM).
Assay [12] has as its target T5, Human GUCY2C full length (SEQ ID NO: …). Briefly: SPR, GUCY2c directly immobilized, 25 C.
Assay [13] concerns the target T6, Murine GUCY2C-ECD cleaved. Briefly: SPR, anti-human IgG capture, 25 C.

T5 sequence (P25092 24-430 F281L limits assumed): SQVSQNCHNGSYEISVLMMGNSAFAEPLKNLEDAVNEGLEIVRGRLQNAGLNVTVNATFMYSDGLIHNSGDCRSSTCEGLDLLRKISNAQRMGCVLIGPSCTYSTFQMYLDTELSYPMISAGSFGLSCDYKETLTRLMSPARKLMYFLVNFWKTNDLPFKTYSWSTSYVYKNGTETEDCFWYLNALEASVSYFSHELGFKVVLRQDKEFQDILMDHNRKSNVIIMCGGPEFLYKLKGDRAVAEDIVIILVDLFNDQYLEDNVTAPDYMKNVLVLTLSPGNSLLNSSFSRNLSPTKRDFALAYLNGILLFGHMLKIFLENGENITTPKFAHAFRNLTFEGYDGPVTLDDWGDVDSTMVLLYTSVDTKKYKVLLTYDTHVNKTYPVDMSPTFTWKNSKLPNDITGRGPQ
T4 sequence (P25092 24-1073 limits assumed): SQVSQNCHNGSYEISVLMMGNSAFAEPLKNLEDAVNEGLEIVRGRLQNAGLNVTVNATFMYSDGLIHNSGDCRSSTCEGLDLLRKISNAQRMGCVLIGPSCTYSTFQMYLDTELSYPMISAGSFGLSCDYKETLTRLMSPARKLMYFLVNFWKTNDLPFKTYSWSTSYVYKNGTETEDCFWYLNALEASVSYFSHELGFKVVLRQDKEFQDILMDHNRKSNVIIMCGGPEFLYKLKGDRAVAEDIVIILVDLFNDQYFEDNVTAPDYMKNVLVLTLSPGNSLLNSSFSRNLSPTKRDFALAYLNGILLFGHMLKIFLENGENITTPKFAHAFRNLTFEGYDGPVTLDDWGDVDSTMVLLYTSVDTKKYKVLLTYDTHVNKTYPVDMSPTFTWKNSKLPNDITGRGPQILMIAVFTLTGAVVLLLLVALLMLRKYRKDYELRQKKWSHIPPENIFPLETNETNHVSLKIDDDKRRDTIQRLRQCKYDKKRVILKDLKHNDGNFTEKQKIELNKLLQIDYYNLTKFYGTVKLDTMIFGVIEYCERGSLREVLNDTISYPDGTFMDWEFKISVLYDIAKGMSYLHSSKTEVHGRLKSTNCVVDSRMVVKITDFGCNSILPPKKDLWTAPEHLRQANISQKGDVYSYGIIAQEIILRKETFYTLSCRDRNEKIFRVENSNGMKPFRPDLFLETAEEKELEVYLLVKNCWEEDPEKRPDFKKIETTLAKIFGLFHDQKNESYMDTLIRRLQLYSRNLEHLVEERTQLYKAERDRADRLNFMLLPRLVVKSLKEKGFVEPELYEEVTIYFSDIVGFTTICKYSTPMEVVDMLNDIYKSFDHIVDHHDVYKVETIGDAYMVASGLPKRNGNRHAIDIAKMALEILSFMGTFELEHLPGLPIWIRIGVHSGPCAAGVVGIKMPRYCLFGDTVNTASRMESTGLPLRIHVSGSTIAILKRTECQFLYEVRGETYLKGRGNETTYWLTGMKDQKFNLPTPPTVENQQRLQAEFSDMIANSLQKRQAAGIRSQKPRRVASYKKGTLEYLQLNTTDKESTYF
T2 sequence (chain, as listed by the source limits assumed): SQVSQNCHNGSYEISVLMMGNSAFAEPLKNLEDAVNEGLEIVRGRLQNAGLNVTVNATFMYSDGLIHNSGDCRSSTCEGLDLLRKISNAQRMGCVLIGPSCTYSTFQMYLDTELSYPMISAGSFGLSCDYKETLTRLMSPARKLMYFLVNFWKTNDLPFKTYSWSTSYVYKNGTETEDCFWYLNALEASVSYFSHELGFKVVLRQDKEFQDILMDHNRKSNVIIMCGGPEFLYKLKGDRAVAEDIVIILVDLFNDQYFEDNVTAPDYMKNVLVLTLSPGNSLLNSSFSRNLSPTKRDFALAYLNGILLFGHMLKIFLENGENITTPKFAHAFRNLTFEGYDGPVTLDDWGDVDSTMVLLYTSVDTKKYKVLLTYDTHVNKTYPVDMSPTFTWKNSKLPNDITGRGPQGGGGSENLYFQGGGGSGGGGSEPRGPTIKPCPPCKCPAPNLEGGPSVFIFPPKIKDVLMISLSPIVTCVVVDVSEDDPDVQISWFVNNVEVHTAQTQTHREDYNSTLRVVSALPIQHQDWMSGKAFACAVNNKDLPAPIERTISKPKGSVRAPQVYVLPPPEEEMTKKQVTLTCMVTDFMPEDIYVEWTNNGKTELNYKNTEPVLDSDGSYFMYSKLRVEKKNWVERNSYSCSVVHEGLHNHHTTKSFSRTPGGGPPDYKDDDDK

B1: GUCY2C_ECD Peptide 19 (peptide)
peptide: NSGDCRSSTCEGLDLLRKIS
notes: also called GUCY2c peptide 19; GUCY2c-ECD peptide number 19
Consider B1, for which the “IC50 (read off the curve)” value in [1] was around 100 nM.

B2: GUCY2C-0247 (bispecific antibody)
chain 1: DIQLTQSPSSLSASVGDRVTITCRASESVDYYGTSLMQWYQQKPGKPPKLLIYAASNVESGVPSRFSGSGSGTDFTLTISSLQPEDFATYYCQQTRKVYTFGQGTKLEIKGGGSGGGGEVQLVESGGGLVQPGGSLRLSCAASGFTFSDYYMTWVRQAPGKGLEWVAFIRNRARGYTSDHNPSVKGRFTISRDNAKNSLYLQMNSLRAEDTAVYYCARDRPSYYVLDYWGQGTTVTVSSGCPPCPAPEAAGAPSVFLFPPKPKDTLMISRTPEVTCVVVDVSHEDPEVKFNWYVDGVEVHNAKTKPREEQYNSTYRVVSVLTVLHQDWLNGKEYKCKVSNKALPAPIEKTISKAKGQPREPQVCTLPPSREEMTKNQVSLWCLVKGFYPSDIAVEWESNGQPENNYKTTPPVLDSDGSFFLYSKLTVDKSRWQQGNVFSCSVMHEALHNHYTQKSLSLSPG
chain 2: DIVMTQSPDSLAVSLGERATINCKSSQSLFNVRSRKNYLAWYQQKPGQPPKLLISWASTRESGVPDRFSGSGSGTDFTLTISSLQAEDVAVYYCKQSYDLFTFGSGTKLEIKGGGSGGGGEVQLVESGGGLVQPGGSLRLSCAASGYTFTSYWMHWVRQAPGKGLEWIGEIKPSNGLTNYIEKFKNRFTISVDKAKNSAYLQMNSLRAEDTAVYYCTRTITTTEGYWFFDVWGQGTLVTVSSGCPPCPAPEAAGAPSVFLFPPKPKDTLMISRTPEVTCVVVDVSHEDPEVKFNWYVDGVEVHNAKTKPREEQYNSTYRVVSVLTVLHQDWLNGKEYKCKVSNKALPAPIEKTISKAKGQPREPQVYTLPPCREEMTKNQVSLSCAVKGFYPSDIAVEWESNGQPENNYKTTPPVLDSDGSFFLVSKLTVDKSRWQQGNVFSCSVMHEALHNHYTQKSLSLSPG
Turning to B2, a half-maximal response in assay [2] (EC50) required 0.705 nM. Also, the Kd (in general, a measure of binding affinity in units of concentration) in assay [3] is 4.35 nM; in [5], 4.65 nM; in assay [6], 12.2 nM; in [7] it was 3.61 nM; in assay [8] it was 3.34 nM; in [9] it was 6.18 nM. In addition, the Kd in [11] came to 1.32 nM; in assay [12], 3.01 nM. Moreover, the koff (usually the rate constant with which the complex falls apart) in assay [3] came to 0.000369 s⁻¹; in assay [5], 0.000457 s⁻¹; in assay [6], 0.00183 s⁻¹; in assay [7], 0.001 s⁻¹; in [8], 0.000985 s⁻¹; in assay [12] it was 0.000433 s⁻¹. In addition, the kon (usually a measure of how fast the partners come together) in [3] came to 85500 M⁻¹ s⁻¹; in [5], 98200 M⁻¹ s⁻¹; in assay [6] it was 150000 M⁻¹ s⁻¹; in assay [7], 280000 M⁻¹ s⁻¹; in assay [8], 295000 M⁻¹ s⁻¹; in assay [12], 144000 M⁻¹ s⁻¹. In addition, the “T84 tumor cell EC50 (T cell cytotoxicity, E:T 5:1)” value in assay [4] and in assay [10] was 0.07 nM in each case.

B3: GUCY2C-0240 (bispecific antibody)
chain 1: DIQLTQSPSSLSASVGDRVTITCRASESVDNYGISFMNWFQQKPGKAPKLLIYAASNPGSGVPSRFSGSGSGTDFTLTISSLQPEDFATYYCQQSKEVPYTFGQGTKLEIKGGGSGGGGEVQLVESGGGLVQPGGSLRLSCAASGFTFSDYYMTWVRQAPGKGLEWVAFIRNRARGYTSDHNPSVKGRFTISRDNAKNSLYLQMNSLRAEDTAVYYCARDRPSYYVLDYWGQGTTVTVSSGCPPCPAPEAAGAPSVFLFPPKPKDTLMISRTPEVTCVVVDVSHEDPEVKFNWYVDGVEVHNAKTKPREEQYNSTYRVVSVLTVLHQDWLNGKEYKCKVSNKALPAPIEKTISKAKGQPREPQVCTLPPSREEMTKNQVSLWCLVKGFYPSDIAVEWESNGQPENNYKTTPPVLDSDGSFFLYSKLTVDKSRWQQGNVFSCSVMHEALHNHYTQKSLSLSPG
chain 2: DIVMTQSPDSLAVSLGERATINCKSSQSLFNVRSRKNYLAWYQQKPGQPPKLLISWASTRESGVPDRFSGSGSGTDFTLTISSLQAEDVAVYYCKQSYDLFTFGSGTKLEIKGGGSGGGGEVQLVESGGGLVQPGGSLRLSCAASGYTFTTYWMQWVRQAPGKGLEWIGAIYPGDGMTTYTQKFKDRFTISADKAKNSAYLQMNSLRAEDTAVYYCVRKGMDYWGQGTLVTVSSGCPPCPAPEAAGAPSVFLFPPKPKDTLMISRTPEVTCVVVDVSHEDPEVKFNWYVDGVEVHNAKTKPREEQYNSTYRVVSVLTVLHQDWLNGKEYKCKVSNKALPAPIEKTISKAKGQPREPQVYTLPPCREEMTKNQVSLSCAVKGFYPSDIAVEWESNGQPENNYKTTPPVLDSDGSFFLVSKLTVDKSRWQQGNVFSCSVMHEALHNHYTQKSLSLSPG
Turning to B3, the EC50 (in general, the concentration that produces a half-maximal response) in assay [2] came to 0.0799 nM. Moreover, the Kd in assay [3] was 91.2 nM; in [5], 37.9 nM; in assay [6], 42.3 nM; in [7] it was 4.71 nM; in [8], 3.73 nM; in assay [13] it was 317 nM. For the same molecule, in assay [12], the Kd was 37.9 nM. Further, the koff in assay [3] is 0.00234 s⁻¹; in [5], 0.00364 s⁻¹; in assay [6], 0.00515 s⁻¹; in assay [7] it was 0.00207 s⁻¹; in [8], 0.00129 s⁻¹; in assay [13], 0.00336 s⁻¹. Also, in [12], the koff was determined as 0.00364 s⁻¹. In addition, the kon in assay [3] was found to be 26100 M⁻¹ s⁻¹; in [5], 96200 M⁻¹ s⁻¹; in assay [6] it was 122000 M⁻¹ s⁻¹; in assay [7], 440000 M⁻¹ s⁻¹; in assay [8] it was 347000 M⁻¹ s⁻¹; in assay [13], 10600 M⁻¹ s⁻¹. The kon in [12] is 96200 M⁻¹ s⁻¹. For the same molecule, the “T84 tumor cell EC50 (T cell cytotoxicity, E:T 5:1)” value in assay [4] and in assay [10] was 0.53 nM in each case.
